The values below come from PMC5674887.

For assay [1], the target named is cNup153 (cysteine-tagged FG domain of human Nup153) (human) (UniProt P49790). The assay is described as follows: SPR. In general terms: In SPR one partner is held on a chip, and binding of the other changes the refractive index at the surface.
For assay [2], the target named is cNup214 (cysteine-tagged FG domain of human Nup214) (human) (UniProt P35658). The assay is described as follows: SPR.
Assay [3] concerns the target cNup62 (cysteine-tagged FG domain of human Nup62) (human) (UniProt P37198). The assay is described as follows: SPR.
The target in assay [4] is cNup98 (cysteine-tagged FG domain of human Nup98) (human) (UniProt P52948). As to the kind of experiment: SPR.
For assay [5], the target named is karyopherinβ1 (human) (UniProt Q14974). As to the kind of experiment: ITC. Background: In ITC the heat of successive injections is recorded.

The Kd is the equilibrium constant for the complex coming apart. Low readings indicate tighter binding, high ones weaker binding.

Chain of karyopherinβ1 (human) (Q14974 whole entry): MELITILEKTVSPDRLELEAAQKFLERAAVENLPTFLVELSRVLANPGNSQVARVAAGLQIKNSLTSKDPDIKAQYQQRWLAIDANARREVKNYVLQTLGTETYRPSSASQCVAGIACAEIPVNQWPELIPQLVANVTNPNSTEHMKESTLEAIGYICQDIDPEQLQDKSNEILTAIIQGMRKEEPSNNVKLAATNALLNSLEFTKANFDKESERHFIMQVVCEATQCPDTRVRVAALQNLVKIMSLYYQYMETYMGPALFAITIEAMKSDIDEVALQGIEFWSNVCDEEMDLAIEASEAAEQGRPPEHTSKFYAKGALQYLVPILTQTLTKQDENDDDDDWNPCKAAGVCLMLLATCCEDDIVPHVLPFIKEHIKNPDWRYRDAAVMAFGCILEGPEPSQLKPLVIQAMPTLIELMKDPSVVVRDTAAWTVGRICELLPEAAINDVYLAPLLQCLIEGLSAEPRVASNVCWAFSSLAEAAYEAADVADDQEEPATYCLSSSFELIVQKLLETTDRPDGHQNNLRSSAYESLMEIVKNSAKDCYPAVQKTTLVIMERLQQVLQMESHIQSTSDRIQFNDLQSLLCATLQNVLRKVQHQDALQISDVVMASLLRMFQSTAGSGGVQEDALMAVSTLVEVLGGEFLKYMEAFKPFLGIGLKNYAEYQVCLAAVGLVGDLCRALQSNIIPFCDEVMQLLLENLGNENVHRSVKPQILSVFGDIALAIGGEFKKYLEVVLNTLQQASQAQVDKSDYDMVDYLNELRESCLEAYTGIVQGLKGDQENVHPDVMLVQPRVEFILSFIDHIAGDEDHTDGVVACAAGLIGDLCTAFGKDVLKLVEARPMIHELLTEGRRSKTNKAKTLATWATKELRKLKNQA
Chain of cNup153 (cysteine-tagged FG domain of human Nup153) (human) (P49790 whole entry, the tested form may be a part): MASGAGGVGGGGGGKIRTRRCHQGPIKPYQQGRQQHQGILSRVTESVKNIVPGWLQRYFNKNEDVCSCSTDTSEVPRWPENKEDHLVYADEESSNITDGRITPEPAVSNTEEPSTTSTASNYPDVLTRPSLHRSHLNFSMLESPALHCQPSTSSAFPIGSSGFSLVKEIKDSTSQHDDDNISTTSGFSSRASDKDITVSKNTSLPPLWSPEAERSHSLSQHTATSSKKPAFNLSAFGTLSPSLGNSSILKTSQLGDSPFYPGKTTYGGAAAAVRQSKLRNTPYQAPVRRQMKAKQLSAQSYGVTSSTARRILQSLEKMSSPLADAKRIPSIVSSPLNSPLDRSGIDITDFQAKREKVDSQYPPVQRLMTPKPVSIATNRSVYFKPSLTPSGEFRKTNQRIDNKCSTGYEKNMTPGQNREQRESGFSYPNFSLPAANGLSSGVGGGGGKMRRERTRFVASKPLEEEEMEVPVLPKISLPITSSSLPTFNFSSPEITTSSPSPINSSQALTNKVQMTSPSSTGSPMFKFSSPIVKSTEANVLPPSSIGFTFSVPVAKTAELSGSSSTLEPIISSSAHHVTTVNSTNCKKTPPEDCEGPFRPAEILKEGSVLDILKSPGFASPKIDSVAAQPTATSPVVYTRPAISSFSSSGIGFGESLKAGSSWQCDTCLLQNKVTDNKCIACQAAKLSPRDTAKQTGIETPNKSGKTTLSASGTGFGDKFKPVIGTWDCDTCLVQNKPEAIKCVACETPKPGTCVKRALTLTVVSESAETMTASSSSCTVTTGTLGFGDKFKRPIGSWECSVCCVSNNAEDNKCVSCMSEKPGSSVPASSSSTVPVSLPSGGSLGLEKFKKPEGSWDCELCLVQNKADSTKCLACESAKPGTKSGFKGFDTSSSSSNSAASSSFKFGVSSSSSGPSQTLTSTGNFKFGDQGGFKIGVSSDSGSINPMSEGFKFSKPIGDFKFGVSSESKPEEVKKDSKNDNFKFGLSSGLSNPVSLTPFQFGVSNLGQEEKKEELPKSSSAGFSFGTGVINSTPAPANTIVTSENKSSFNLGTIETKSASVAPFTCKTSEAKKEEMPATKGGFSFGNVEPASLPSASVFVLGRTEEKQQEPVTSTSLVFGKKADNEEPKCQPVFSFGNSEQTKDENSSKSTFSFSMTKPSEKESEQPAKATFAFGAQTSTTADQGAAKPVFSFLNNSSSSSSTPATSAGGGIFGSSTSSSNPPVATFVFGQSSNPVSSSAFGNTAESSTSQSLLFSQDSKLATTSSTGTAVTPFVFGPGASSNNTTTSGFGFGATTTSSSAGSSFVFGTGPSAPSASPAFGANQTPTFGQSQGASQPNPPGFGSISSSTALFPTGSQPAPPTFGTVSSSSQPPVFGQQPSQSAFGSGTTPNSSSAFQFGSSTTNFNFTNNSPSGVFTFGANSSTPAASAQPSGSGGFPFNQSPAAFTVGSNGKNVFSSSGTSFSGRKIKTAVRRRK
Chain of cNup62 (cysteine-tagged FG domain of human Nup62) (human) (P37198 whole entry, the tested form may be a part): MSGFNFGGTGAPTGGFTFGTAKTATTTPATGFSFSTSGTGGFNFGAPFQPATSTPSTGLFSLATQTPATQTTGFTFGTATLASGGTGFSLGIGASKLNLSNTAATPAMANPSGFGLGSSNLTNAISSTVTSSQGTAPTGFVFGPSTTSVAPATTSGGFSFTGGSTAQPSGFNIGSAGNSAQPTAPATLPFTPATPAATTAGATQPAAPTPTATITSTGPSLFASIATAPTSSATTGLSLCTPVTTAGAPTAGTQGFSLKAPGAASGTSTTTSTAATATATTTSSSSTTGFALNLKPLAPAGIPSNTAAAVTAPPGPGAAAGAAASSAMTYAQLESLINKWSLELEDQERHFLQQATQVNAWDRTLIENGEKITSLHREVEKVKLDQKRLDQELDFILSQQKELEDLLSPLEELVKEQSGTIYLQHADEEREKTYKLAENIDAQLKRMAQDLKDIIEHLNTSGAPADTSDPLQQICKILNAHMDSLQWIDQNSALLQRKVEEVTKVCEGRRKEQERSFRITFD
Chain of cNup98 (cysteine-tagged FG domain of human Nup98) (human) (P52948 whole entry, the tested form may be a part): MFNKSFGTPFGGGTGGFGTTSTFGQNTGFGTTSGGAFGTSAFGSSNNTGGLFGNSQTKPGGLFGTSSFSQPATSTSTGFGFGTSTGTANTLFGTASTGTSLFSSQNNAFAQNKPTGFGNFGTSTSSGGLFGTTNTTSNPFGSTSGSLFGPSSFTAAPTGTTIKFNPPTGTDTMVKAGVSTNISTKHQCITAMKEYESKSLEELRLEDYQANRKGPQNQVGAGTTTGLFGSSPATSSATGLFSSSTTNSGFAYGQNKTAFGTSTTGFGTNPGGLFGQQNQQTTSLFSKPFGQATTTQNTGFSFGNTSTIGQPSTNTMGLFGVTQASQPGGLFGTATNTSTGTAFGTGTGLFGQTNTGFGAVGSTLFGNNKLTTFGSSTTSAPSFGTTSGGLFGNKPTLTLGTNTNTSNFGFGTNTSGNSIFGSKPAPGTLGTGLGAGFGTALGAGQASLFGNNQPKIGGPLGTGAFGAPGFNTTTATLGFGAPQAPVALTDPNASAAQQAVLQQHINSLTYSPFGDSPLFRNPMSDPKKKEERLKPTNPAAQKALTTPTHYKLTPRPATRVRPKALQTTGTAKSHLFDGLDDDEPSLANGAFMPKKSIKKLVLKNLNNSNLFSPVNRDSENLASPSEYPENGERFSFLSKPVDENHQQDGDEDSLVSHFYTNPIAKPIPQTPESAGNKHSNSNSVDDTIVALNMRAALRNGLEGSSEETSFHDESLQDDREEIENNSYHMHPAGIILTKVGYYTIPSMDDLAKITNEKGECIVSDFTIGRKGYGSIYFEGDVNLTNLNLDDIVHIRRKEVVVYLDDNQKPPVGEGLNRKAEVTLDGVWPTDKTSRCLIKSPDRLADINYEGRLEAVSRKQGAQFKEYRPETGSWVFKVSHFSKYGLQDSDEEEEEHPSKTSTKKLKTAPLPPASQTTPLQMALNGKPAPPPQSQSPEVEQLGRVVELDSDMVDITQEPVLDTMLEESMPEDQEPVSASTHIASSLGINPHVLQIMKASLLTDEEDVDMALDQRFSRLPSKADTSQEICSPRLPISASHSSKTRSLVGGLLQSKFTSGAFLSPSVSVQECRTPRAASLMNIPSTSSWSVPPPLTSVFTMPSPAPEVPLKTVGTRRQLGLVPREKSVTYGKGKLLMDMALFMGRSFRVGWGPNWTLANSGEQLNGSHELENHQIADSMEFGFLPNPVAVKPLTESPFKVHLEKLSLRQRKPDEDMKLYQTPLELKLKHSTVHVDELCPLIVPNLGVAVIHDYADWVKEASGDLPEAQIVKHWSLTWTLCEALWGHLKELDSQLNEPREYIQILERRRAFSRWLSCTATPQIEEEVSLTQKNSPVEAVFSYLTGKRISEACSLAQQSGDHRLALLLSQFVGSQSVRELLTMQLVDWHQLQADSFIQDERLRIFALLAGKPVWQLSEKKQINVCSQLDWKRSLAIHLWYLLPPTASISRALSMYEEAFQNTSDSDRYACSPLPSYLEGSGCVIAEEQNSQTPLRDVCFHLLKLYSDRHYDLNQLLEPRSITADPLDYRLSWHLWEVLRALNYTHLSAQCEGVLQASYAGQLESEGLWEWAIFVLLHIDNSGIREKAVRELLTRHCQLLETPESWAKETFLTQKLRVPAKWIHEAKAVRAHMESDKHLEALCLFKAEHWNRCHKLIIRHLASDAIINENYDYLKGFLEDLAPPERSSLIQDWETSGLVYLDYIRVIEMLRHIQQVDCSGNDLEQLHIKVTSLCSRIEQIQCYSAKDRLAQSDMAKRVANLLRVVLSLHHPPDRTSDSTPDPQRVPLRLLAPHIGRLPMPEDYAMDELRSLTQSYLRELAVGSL

Turning to “Kapα·Kapβ1 (from UniProt P52292;Q14974) (complex)”, the fold higher affinity than Kapβ1 and RanGTP·Kapβ1 (strong binding phase) in assay [1], in assay [2], in assay [3] and in assay [4] was 10 fold in each case.

In the case of “RanGTP (from UniProt P62826 1-216) (natural protein)”, in assay [5], the Kd was determined as 35 nM. In other words, the double-digit nanomolar range.

In the case of “karyopherinα (from UniProt P52292 1-529) (natural protein)”, the Kd in assay [1] was found to be 1300 nM; in assay [5], 210 nM.
